Experiments:
[1] = target: human α-thrombin (human) (UniProt P00734); experiment: inhibition of thrombin-mediated hydrolysis of Tosyl-Gly-Pro-Arg-AMC (fluorogenic amidolytic assay)
[2] = target: thrombin; experiment: Ki, antithrombin activity in vitro (amidolytic assay of thrombin activity)
[3] = target: bovine α-thrombin (bovine) (UniProt P00735); experiment: inhibition of thrombin-mediated hydrolysis of Tosyl-Gly-Pro-Arg-AMC (fluorogenic amidolytic assay)
[4] = target: bovine α-thrombin (bovine) (UniProt P00735)
[5] = target: human α-thrombin (human) (UniProt P00734)

Row | Substance | Ki [1] | further results
1 | P54 [Thr^45, Arg^47, D-Pro^48 ]hirudin^45-65 (from UniProt P01050) (peptide) | 72 nM | 
2 | P73 [D-Phe^45, Ala^47 ]hirudin^45-65 (from UniProt P01050) (peptide) | 41 nM | 
3 | r-Hirudin HV2 (from UniProt P09945) | 0.00038 nM | Ki [2]: 0.0004 nM
4 | P51 hirudin^45-55 (from UniProt P01050) (peptide) | 110 nM | Ki [3]: 720 nM
5 | P53 [D-Phe^45, Arg^47 ]hirudin^45-65 (peptide) |  | IC50, inhibition of fibrin clot formation [4]: 70 nM; IC50, inhibition of fibrin clot formation [5]: 4 nM
